Reference: the nanobody polyreactivity screen of Harvey et al. (2022)

Assay: yeast display, Sf9 membrane polyspecificity reagent, FACS + sequencing; frameworks hold sequencing errors
Method in brief: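 Nanobodies came from a synthetic yeast display library in Saccharomyces cerevisiae BJ5465, induced with galactose for 36–48 hours and stained for 1 hour at 4 °C with 10% biotinylated, detergent-solubilized Sf9 membrane reagent. Cells were enriched on streptavidin microbeads and then FACS-sorted, with low and high (top ~1%) gates set on anti-HA fluorescence for expression and streptavidin fluorescence for reagent binding. Each polyreactivity label reflects the gate a clone came from. Genes were amplified by colony PCR, sequenced by MiSeq 2 × 250 and filtered by CDR length.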

Sequence | polyreactivity (PSR sort gate)
QVQLEESGGGLLQAGGSHSLSCAASGSTFYKYGMVWYRQAPGKEREFVAAISGSGDSTYYADSVKGRFTISRDNAKNTVYLHMNRLKPEDTAVYYCNAGPWWYLHEYDYWGQGTQVNVSS | low polyreactivity
QVQLVESGGGLVQAGGSLRLSCAASGRTFGFNAMGWYRQAPGKDRELVASITRGGRTDYADSVKGRFTISRDNAKNTVYLQMNSLKPEDTAVYYCAAQSGWHHTGGMYYWGQGTQVTVSS | high polyreactivity
QVQLVESGGGLVPAGGSLRLSCAASGRTFIKYAMGWYRQAPGKERELVAAISRSAGSTYYADSVKGRFTISRDNAKNTVYLQMNSLKPEDTAVYYCNAVTSSYLRFDYWGQGTQVSVSS | high polyreactivity
QVQLVESGGGLVQAGGSLRLSCAASGSTFKVNDMGWYRQAPGKERELVAAIDKSGGTTYYADSVKGRFTISRDNAKNTVYLQMNSLKPEDTAVYYCAADVIYEMDYWGQGTQVTVSS | low polyreactivity
QVQLVESGGGLVQAGGSLSLSCAASGSTFSLNTKGWYRQAPRKERELVAAITSGGSTNYADSVKGRFTISRDNAKNTVYLQMNSLKPEDTAVYYCAATPGRGGGYNYWGQGSQVTVSS | low polyreactivity
QVQLVESGGGLVQAGGSLRLSCAATGIIFRDYGKGWYRHAPGKQREFVATITYSGGGTYYADSVKGRFTISRDNAKNTVYLQMNSLKPEDTAVYYCAAYPFYYDLAYDYWGQGTQVTVSS | low polyreactivity
QVQLVESGGGLVQAGGSLRLSCAASGSIFSYYAMGCYRQAPGKERQLVASISWIGTSTYYADSVKGRFTISRDNAKNTFYLQINSLKPEDTAVYYCNADWTYYGFGTRLDYWGQGTQVTVSS | low polyreactivity
QVQLVESGGGLVQAGGSLRLSCAASGRIFHSYTIGWYRPAPGNERELVAAINWSGTRTYYADSVKGRFTISRDNAKNTVYLQMNSLKPEDTAVYYCNRVGVTRSYRYDYWGQGTQVTVSS | high polyreactivity
QVQLVESGGGLVQAGGSLRLSCAASGRTFNPYAMGWYRQAPGKERELVAAIRWRGTRTYYADSVKGRFTISRDNAKNTVYLQMNSLKPEDTAVYYCNALLGYYRWRRPVDYSYGSWGQGTQVTVSS | high polyreactivity
QVQIVDSGGGLVQAGGSLRISCAASGRIFAGYGKGWYRQAPGKERELVAAISSGGSTYYADSVKGRFTISRDNAKNTVYLQMNSLKPEDTAVYYCATDGQSVPDDYYQNVDYDYWGQGTQVTVSS | low polyreactivity
QVQLVESGGGLVQAGGSLRLSCAASGSIFNRYAMGWYRQAPGKEREIVAAISTHTGTTYYADSVKGRFTISRDNAKNTVYLQMNSLKPEDTAVYYCDKRSRYGYGKSYDYWGQGTQVTVSS | high polyreactivity
QVQLQESGGGLVQAGGSLRLSCAASGYISFSGYIGRYRQAPGKEREFVDSITPGRSTYYADSVKGRFTISRDNAENTVYLQMNSLKPEDTAVYYCAADDSRTEQHAYWGQGTQVTVSS | high polyreactivity
QVQIVESGGGLVQAGGTLRISCAASGFTLYYYAMGWSRQAPGKERELVAAITSSGTSTYYADSVKGRFTISRDNAKNTVYLQMNSLKPEDTAVYYCAAVSKIYHYRAVRLDDYWGQGTQVSVSS | low polyreactivity
QVQLVESGGGLVQAGGSLRLSCAASGSTFSNNVMGGYIQAPGKERELVAAISSRGGSTYYADSVKGRFTISRDNAKNTVYLQMNSLKPEDTAVYYCAADQWYAFILGYPMVYWGQGTQVTVSS | high polyreactivity
QVQLVESGGGLVQAGGSLRLSCAASGGTFSKYAMGWYRQAPGKEREFVAAITVSGGGTYYADSVKGRFTISRDNAKNTVYLQMNSLKPEDTAVYYCAADLGWTASDYWGQGTQVTVSS | low polyreactivity
QVQLVESGVGLVQAGGILRLSCAASGRIFYKNAMVWYRQAPGKERELVATITYSDGTTYYADSLKGRFTISRDNAKNTVYLQMNSLKPEDTAVYYCAAQTDSVESDYWGQGTQVTVSS | low polyreactivity
QVQLVESGGGLVQAGGSLRLSCAASGSTFFLYGRGWYRQARGKERELVATISKRGGSTHYADSVKGRFTISRDNAKNTVYVQKHSLKPEDTAVYYCAAGRPGVSFKEWSYKPSSSYDYWGQGTQVTVSS | low polyreactivity
HVQLVESGGGLVQAGGSLRLSCAASGITFASYGMGWYRPAPGKDRELVAAISQRGGRTYYADSVKGRFTISRDNAKNTVYLQMNSLKPEDTAVYYCARTVGYRTLLESDSWGQGTQVTVAS | high polyreactivity
QVQLVESGGGLVQAGGSLRLSCAASGSIVKHYAMGWYRQAPGKERKLVATITRSGRTNYADSVKGRFTISRDNAKNTVYLQMNSLKPEDTAVYYCNTVRGGQSPHPVRYGYWGQGTQVTVSS | high polyreactivity
QVQLVESGGGLFQAGGSIRLSCAASGRISEGYAMGWYIQAPGKERELVAAITSSTASTYYADSVKGRFTISRDNAKNTVYLQMNSLKPEDTAVYYCNADYGLYPEDYDYWGQGTQVTVSS | low polyreactivity
QVQLVESVAGLVQAGGSLRLSCAASGSIFRFYAMGWYRQAPGKERELVAGITWSGASTYYADSVKGRFTISRDNAKNTVYLQMNSLKPEDTAVYYCAKRYRLDGFYYWGQGTQVTVSS | high polyreactivity
QVQLVESGGGLVQAGGSLRLSCAASGRTFRSYDMGWYRQAPGKERELVAAISEDGGYTYYADSVKGRFTISRDNAKNSVYLQMNSVKPEDTAVYYCAKDRPGPLRWWFLYGYWGQGTQVTVSS | low polyreactivity

Sequence | polyreactivity (PSR sort gate)
QVQLVESGGGLVQAGGSLRLSCAASGSTFYFNAMGWYRQAPGKERELVAAIDWSGGSTYYADSVKGRFTISRDNAKNTVYLQMNSLKPEDTAVYYCNADNYEWGNNYGYWGQGTQVTVSS | low polyreactivity
QVQLVESGGGLVQAGGSLRLSCAASGYIFDAYAMGWYRQAPGKERELVAAIDIGGSTYYADSVKGRFTISRDNAKNTVYLQMNSLKPEDTAVYYCAEWFYFDQWDYAREYWGQGTQVTVSS | low polyreactivity
QVQLVESGGGLVQAGGSLRLSCAASGSIFPFYAMGWYRQAPGKERELVAAITYSGGSTFYADSVKGRFTISRDNAKNTVYLQMNSLKPEDTAVYYCNAVWRFGSSKYYYWGHGTQVTVSS | high polyreactivity
QVQLVESGGGLVQAGGSIRLSCAASGFTFDAYAMGWYRQAPGKESELVAAITTSGGNTNYADSVKGRFTISRDNAKNTVYLQMNSLKPEDTAVYYCASDAAVEYGKISYDYWGQGTQVTVSS | low polyreactivity
QVQLVESGGGLVQAGGSLRLSCAASGRTSFGYAMGWYRQAPGKERELVAVISIGGTTYYADSVKGRFTISRDNAKNTVYLQMNSLKPEDTAVYYCAATPSNATGFLSYDYWGQGTQVTVSS | low polyreactivity
QVQLVESGGGLVQAGGSLRLSCAASGFTFAYYAMGWYRPAPGKERELVATIRGGGSTNYADSVKGRFTISRDNAKNTVYLQMNSLKPEDTAVYYCAAGYVWYFDYFSAYYWGQGTQVTVSS | high polyreactivity
QVQLVDSGGGLVQAGGILRLSCAASGFILSDNAMGWYRQGPGKERELVAAINSGGSTYYADSVKGRFTISRDNAMNTVYLQMNSLKPEDTAVYYCAADFSTWLRAYDYWGQGTQVTVSS | low polyreactivity
QVQLVESVGGLVQAGGSLRLSCAASGFTFWIYAMGWYRQAPGKERELVAVISRGGSTYYADSVKGRFTISRDNAKNTVYLQMNSLKPEDTAVYYCAAYWRSRNRFYWGQGTQVTVSS | high polyreactivity
QVQLVESGGGLVQAGGSLRLSCAASGSIFYWNAMGWYRQAPGKEREFVADISQSGDSTYYADSVKGRFTISRDNAKNTVYLQMNSLKQEDTAVYYCAAQFLSYAWDYDYWGQGTQVTVSS | low polyreactivity
QVQLVESGGGLVQAGGSLRLSCAASGSIFQWNAMGWYRQAPGKERELVAAMSWSGTRTYYADSVKGRFTISRDNAKNTVYLQMNSLKPEDTAVYDCAFRGGKPTYRYDYWGQGTQVTVSS | high polyreactivity
QVQLVESGGGLVQAGGSLRLSCADSGNTFSYYAMGWYRQAPGKEREFVAAIRKSGASTYYADSVKGRFTISRDNAKNTVYLEMNSLKPEDTAVYYCAADGQVSYALGFDYCGQGTQVTVSS | high polyreactivity
QVQLVESGGGLVQAGGSHRLSCAASGRIIGYNPMGWYRQAPGKERELVASIRYSGGSTYYADSVKGRFTISRDNAKNPVYLQMNSLKPEDTAVYYCATRVTYRRRFDYWGQGTQVTVSS | high polyreactivity
QVQLVESGGGLLQAGGSLRLSCAASGFTFRSYDMGWYRQAPGKERELVAAISWRGGRTYYADSVKGRFTISRDNAKNTVDLQMNSLKPEDTAVYYCATDWYWGSYAPYTTRAHFDYWGQGTQVTVSS | high polyreactivity
QVHLVETGGGLDQAGGSLRLSCAASGYTFKTNDMRAYSPPPGKDREFVAAISAIGASTYYADSVKGRFTISRDTAKNTVYLQMKSLKPEDTAVYYCATGPYPLWYVWTDGYDHWGQGTQVPVSS | low polyreactivity
QVQLVESGGGLVQAGGSLRLSCAASGRILPSNAMGWYRQSPGKERELVATISSSGGDTYYADSVKGRFTISRDNAKNTVYLQMNSLKPEDTAGYYCAADSTWEGGYKYEYWGQGTQVTVSS | low polyreactivity
QVQLVESVGGLVQAGGSLRLSCAASGSTIRYYAIAWYRQAPGKERELVAAITSSGGRTYYADSVKGRFTISRDYAKNTVYLQMNSLKPEDTAVYYCAAYAYYHTGDDYWGQGTQVTVSS | high polyreactivity
QVQLVESGGGLVQAGGSLRLSCAASGSTFVVNAMAWYRQAPGKERELVAVISYSGDSTYYADSVKGRFTISRDNAKNTVYLQMNSLKPEDSAVYYCNADYYDESNWGQGTQVTVSS | low polyreactivity
QVQLVESGGGLVQAGGSLRLSCAASGRIFRGYAMGWYRQAPGKERELVATISAIGGSTYADSVKGRFTISRHNAKNTVYLQMNSLKPEDTAVYYCNVRKVYRYQYRFEYWGQGTQVTVSS | high polyreactivity
QQQLQESGSGLVQAGGSLRLSCAASGNIFQDWVMGWYRQAPGKERELVAAISPGAITYYADSVKGRFTISRDNAKNTVYLQTNSLKPEDTAVYYCAAYYIVEYLHGYWGQGTRVTVSS | low polyreactivity
QVQLVESGGGIVQAGGSLRLSCAASGRIFQFYAMGWYRQAPGKERELVAGITTSGGSTYYADSVKGRFTISRDNAKNTVYLQMNSLKPEDTAVYYCAASRHFARHRGYYFRYDYWGQGTQVTVSS | high polyreactivity
QVQLVESGGGLVQAGGSLRLSCAASGSTFGPNAMGWYRQAPGKERELVAAIRSNGGRTYYADSVKGRFTISRDNAKNSVYLQMNSLKPEDTAVYYCAAPHYPYDTPYGYWGQGTQVTVSS | low polyreactivity
